B1: SWI/SNF complex subunit SMARCC1, residues 620 to 663; numbered along this chain, Q92922 (parent)
chain: GREWTEQETLLLLEALEMYKDDWNKVSEHVGSRTQDECILHFLR

± gives the uncertainty stated by the source.

The variants in the series derive from B1. The experiment in a line: abundance fitness (aPCA) (normalised: wild type 0, dead -1); higher = more abundant; growth selection in yeast, the domain comes from the species named. To be noted: Homo sapiens.
Take GREWTEQETLALLEALEMYKDDWNKVSEHVGSRTQDECILHFLR [L11A]: the abundance fitness was -0.134 ± 0.091. In the case of GREWTEQETLILLEALEMYKDDWNKVSEHVGSRTQDECILHFLR [L11I], the abundance fitness was -0.29 ± 0.088. As for GREWTEQETLMLLEALEMYKDDWNKVSEHVGSRTQDECILHFLR [L11M], the abundance fitness was 0.138 ± 0.076. For GREWTEQETLDLLEALEMYKDDWNKVSEHVGSRTQDECILHFLR [L11D], the abundance fitness is -0.19 ± 0.12.

As for GREWTEQETLGLLEALEMYKDDWNKVSEHVGSRTQDECILHFLR [L11G], the abundance fitness is -0.154 ± 0.074. As to GREWTEQETLKLLEALEMYKDDWNKVSEHVGSRTQDECILHFLR [L11K], the abundance fitness came to 0.021 ± 0.095. Regarding GREWTEQETLSLLEALEMYKDDWNKVSEHVGSRTQDECILHFLR [L11S], the abundance fitness is 0.024 ± 0.057. Turning to GREWTEQETLRLLEALEMYKDDWNKVSEHVGSRTQDECILHFLR [L11R], the abundance fitness was -0.139 ± 0.063. For the variant GREWTEQETLPLLEALEMYKDDWNKVSEHVGSRTQDECILHFLR [L11P], the abundance fitness was -0.58 ± 0.097. Take GREWTEQETLWLLEALEMYKDDWNKVSEHVGSRTQDECILHFLR [L11W]: the abundance fitness is -0.258 ± 0.11. Consider GREWTEQETLVLLEALEMYKDDWNKVSEHVGSRTQDECILHFLR [L11V], for which the abundance fitness is -0.064 ± 0.08.

As to GREWTEQETLNLLEALEMYKDDWNKVSEHVGSRTQDECILHFLR [L11N], the abundance fitness is -0.304 ± 0.093. As for GREWTEQETLELLEALEMYKDDWNKVSEHVGSRTQDECILHFLR [L11E], the abundance fitness was -0.281 ± 0.1. As for GREWTEQETLCLLEALEMYKDDWNKVSEHVGSRTQDECILHFLR [L11C], the abundance fitness was -0.521 ± 0.18. For the variant GREWTEQETLTLLEALEMYKDDWNKVSEHVGSRTQDECILHFLR [L11T], the abundance fitness came to 0.016 ± 0.06. Consider GREWTEQETLFLLEALEMYKDDWNKVSEHVGSRTQDECILHFLR [L11F], for which the abundance fitness was -0.096 ± 0.09. On to GREWTEQETLLFLEALEMYKDDWNKVSEHVGSRTQDECILHFLR [L12F], for which the abundance fitness turned out to be 0.016 ± 0.074.

For the variant GREWTEQETLLRLEALEMYKDDWNKVSEHVGSRTQDECILHFLR [L12R], the abundance fitness is -0.718 ± 0.17. With GREWTEQETLLELEALEMYKDDWNKVSEHVGSRTQDECILHFLR [L12E] the figure was -0.129 ± 0.17; with GREWTEQETLLDLEALEMYKDDWNKVSEHVGSRTQDECILHFLR [L12D], -0.259 ± 0.17; with GREWTEQETLLGLEALEMYKDDWNKVSEHVGSRTQDECILHFLR [L12G], 0.009 ± 0.12. With GREWTEQETLLMLEALEMYKDDWNKVSEHVGSRTQDECILHFLR [L12M] the figure was -0.32 ± 0.14; with GREWTEQETLLALEALEMYKDDWNKVSEHVGSRTQDECILHFLR [L12A], -0.213 ± 0.076.

With GREWTEQETLLTLEALEMYKDDWNKVSEHVGSRTQDECILHFLR [L12T], the abundance fitness was -0.602 ± 0.11. Take GREWTEQETLLVLEALEMYKDDWNKVSEHVGSRTQDECILHFLR [L12V]: the abundance fitness is -0.341 ± 0.11. With GREWTEQETLLYLEALEMYKDDWNKVSEHVGSRTQDECILHFLR [L12Y], the abundance fitness is -0.103 ± 0.095. As to GREWTEQETLLCLEALEMYKDDWNKVSEHVGSRTQDECILHFLR [L12C], the abundance fitness is -0.401 ± 0.15.

In the case of GREWTEQETLLNLEALEMYKDDWNKVSEHVGSRTQDECILHFLR [L12N], the abundance fitness was -0.938 ± 0.17. As for GREWTEQETLLPLEALEMYKDDWNKVSEHVGSRTQDECILHFLR [L12P], the abundance fitness was -0.709 ± 0.28. As for GREWTEQETLLHLEALEMYKDDWNKVSEHVGSRTQDECILHFLR [L12H], the abundance fitness is -0.413 ± 0.076.

GREWTEQETLLQLEALEMYKDDWNKVSEHVGSRTQDECILHFLR [L12Q]: the abundance fitness is -0.372 ± 0.14. In the case of GREWTEQETLLKLEALEMYKDDWNKVSEHVGSRTQDECILHFLR [L12K], the abundance fitness was -0.428 ± 0.13. As to GREWTEQETLLSLEALEMYKDDWNKVSEHVGSRTQDECILHFLR [L12S], the abundance fitness is -0.651 ± 0.11.

Regarding GREWTEQETLLLDEALEMYKDDWNKVSEHVGSRTQDECILHFLR [L13D], the abundance fitness was found to be 0.01 ± 0.22.

Turning to GREWTEQETLLLSEALEMYKDDWNKVSEHVGSRTQDECILHFLR [L13S], the abundance fitness was -0.259 ± 0.31. With GREWTEQETLLLVEALEMYKDDWNKVSEHVGSRTQDECILHFLR [L13V], the abundance fitness is -0.126 ± 0.18. With GREWTEQETLLLWEALEMYKDDWNKVSEHVGSRTQDECILHFLR [L13W] the figure was -0.314 ± 0.45; with GREWTEQETLLLAEALEMYKDDWNKVSEHVGSRTQDECILHFLR [L13A], 0.285 ± 0.18; with GREWTEQETLLLHEALEMYKDDWNKVSEHVGSRTQDECILHFLR [L13H], -0.166 ± 0.12. With GREWTEQETLLLYEALEMYKDDWNKVSEHVGSRTQDECILHFLR [L13Y], the abundance fitness was -0.229 ± 0.42. On to GREWTEQETLLLQEALEMYKDDWNKVSEHVGSRTQDECILHFLR [L13Q], for which the abundance fitness was -0.197 ± 0.18. With GREWTEQETLLLTEALEMYKDDWNKVSEHVGSRTQDECILHFLR [L13T], the abundance fitness turned out to be 0.531 ± 0.24. With GREWTEQETLLLREALEMYKDDWNKVSEHVGSRTQDECILHFLR [L13R], the abundance fitness was found to be 0.127 ± 0.11. Regarding GREWTEQETLLLIEALEMYKDDWNKVSEHVGSRTQDECILHFLR [L13I], the abundance fitness amounted to 0.044 ± 0.24. With GREWTEQETVLLLEALEMYKDDWNKVSEHVGSRTQDECILHFLR [L10V], the abundance fitness is -0.04 ± 0.06.

Take GREWTEQETRLLLEALEMYKDDWNKVSEHVGSRTQDECILHFLR [L10R]: the abundance fitness is 0.158 ± 0.056.

Regarding GREWTEQETSLLLEALEMYKDDWNKVSEHVGSRTQDECILHFLR [L10S], the abundance fitness came out at 0.147 ± 0.065. With GREWTEQETTLLLEALEMYKDDWNKVSEHVGSRTQDECILHFLR [L10T] the figure was 0.237 ± 0.069; with GREWTEQETYLLLEALEMYKDDWNKVSEHVGSRTQDECILHFLR [L10Y], -0.407 ± 0.18.

For GREWTEQETWLLLEALEMYKDDWNKVSEHVGSRTQDECILHFLR [L10W], the abundance fitness was -0.137 ± 0.083. In the case of GREWTEQETQLLLEALEMYKDDWNKVSEHVGSRTQDECILHFLR [L10Q], the abundance fitness was determined as 0.251 ± 0.072. As to GREWTEQETLLLLCALEMYKDDWNKVSEHVGSRTQDECILHFLR [E14C], the abundance fitness was -0.684 ± 0.16. With GREWTEQETLLLLKALEMYKDDWNKVSEHVGSRTQDECILHFLR [E14K] the figure was -0.006 ± 0.12. Then GREWTEQETLLLLHALEMYKDDWNKVSEHVGSRTQDECILHFLR [E14H], with -0.311 ± 0.1; and GREWTEQETLLLLIALEMYKDDWNKVSEHVGSRTQDECILHFLR [E14I], with -0.97 ± 0.44.

Consider GREWTEQETLLLLDALEMYKDDWNKVSEHVGSRTQDECILHFLR [E14D], for which the abundance fitness was -0.177 ± 0.27.

Regarding GREWTEQETLLLLAALEMYKDDWNKVSEHVGSRTQDECILHFLR [E14A], the abundance fitness was 0.007 ± 0.072. Take GREWTEQETLLLLGALEMYKDDWNKVSEHVGSRTQDECILHFLR [E14G]: the abundance fitness is -0.27 ± 0.075.

The record behind these values is the Human Domainome abundance scans (Beltran et al. 2025).
